Measurements as given in the supplement of paper PMC9170038.

Test system: MS2 coat protein
Assay: apparent KD of MS2 coat protein; designed switch direction (-1 OFF switch, 1 ON switch): -1; higher = weaker reporter binding
Summary of the method: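 RNA switches sharing common flanks were transcribed by stalled E. coli RNA polymerase on Illumina chips. A doubling series of SNAP-549-labelled MS2 coat protein, from 0.7 or 1.5 nM to 3 µM, was applied in Tris-HCl pH 7.5 buffer with KCl, MgCl2, BSA, DTT, tRNA and Tween-20. Each step lasted 0.8–1.5 h at the bottom of the series and 10–20 min at the top. Normalised cluster fluorescence was curve-fitted, giving apparent KD as the per-design median over clusters.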

[1] = input ligand: microRNA oligo, concentration not stated
[2] = Eterna round: R95, input ligand: FMN 200 uM
[3] = Eterna round: R95, input ligand: microRNA oligo, concentration not stated
[4] = Eterna round: R95, input ligand: none

Sequence | apparent KD of MS2 coat protein (input ligand: FMN 200 uM) | apparent KD of MS2 coat protein (input ligand: none) | apparent KD of MS2 coat protein [1] | apparent KD of MS2 coat protein [2] | apparent KD of MS2 coat protein [3] | apparent KD of MS2 coat protein [4]
UGUUAAGCAGGAUAUACGUUGUCCUAUUAAACUAGUGAAGGACAUGAGGAUCACCCAUGUAGAAGGGCUAAGCG [Eternabot (L2) Solution 70] (Eterna round: R97, puzzle: Exclusion 2) | 0.0852 µM | 0.0837 µM | – | – | – | –
AAUUUACAUGAGGAUCACCCAUGUGAGGAUAUAUACAAAGAAGUGUUAGUAAGAAUGUAUAGAAGGCGCGUGAU [JR_Exc1_Sub040] (Eterna round: R97, puzzle: Exclusion 1) | 0.0714 µM | 0.0586 µM | – | – | – | –
UAAUUAAAUGUAGGAUAUCUGCACGUGUAGUGCAGAGAAGGACAUGAGGAUCACCCAUGUAGAUCAAAUUAAAUUAAUUUAAUU [ENG1/5-D3] (Eterna round: R96, puzzle: Exclusion NG 1) | 0.054 µM | 0.0237 µM | 0.0215 µM | – | – | –
GAAAAGGUAGGAUAUACGAAAAAAAAUGGUAGAAAAAAAACACAUGAGGAUCACCCAUGUAGAAGGACCAAAAG [salish99_ex2_r3_071] (puzzle: Exclusion 2) | – | – | – | 0.023 µM | 0.0246 µM | 0.0179 µM
CGGUGUAACGUAGGAUAUCAACGCAACUGACGAUGAGAAGGACGACAUGAGGAUCACCCAUGUGAUUUCUCAAUAUUAUACAUC [Prohibition 86 - Jieux - Exclusion NG 1] (Eterna round: R96, puzzle: Exclusion NG 1) | 0.339 µM | 0.0634 µM | 0.0419 µM | – | – | –
AAUUCACAUGAGGAUCACCCAUGUCAGGAUAUGGUUUCACUUUUUUCUUUUCUUGAUUCCAGAAGGGACAGCUA (puzzle: Exclusion 1) | – | – | – | – | 0.0626 µM | –
UCAUGUUAGCAGGAUAUGCUAUUUAUUUUUUAUGCAGAAGGGCUUACAUGAGGAUCACCCAUGUGUUAGGUUUU [JR_E6_Sub073] (Eterna round: R96, puzzle: Exclusion 6) | 0.0348 µM | 0.0706 µM | 0.0415 µM | – | – | –
GCGGACAAGAUGGCGACAUCAGAGACAUGAGGAUCACCCAUGUAGGAUAUCGAUUCGAAACGAAUCGAGAAGGGCAUAGUCCGC [JL denovo 34] (Eterna round: R96, puzzle: Exclusion NG 3) | 0.0147 µM | 0.0167 µM | 0.0103 µM | – | – | –
UGGCUUAGAGGAUAUACAUUGAAUAAGAUUCAUGUAAAACUACAUGAGGAUCACCCAUGUAGAAGGCUAGGCCU [Mat - Exclusion 2 - JL Mod - D73] (Eterna round: R97, puzzle: Exclusion 2) | 0.0327 µM | 0.0179 µM | – | – | – | –
CACCUGAACACAGGAUAUCCUACAUGAGGAUCACCCAUGUAAUAAAUGAGAAUUUCGAAUGUAAUGGAGAAGGGUGGAUAAGGC [Ostracism 89 - Jieux - Exclusion NG 2] (Eterna round: R96, puzzle: Exclusion NG 2) | 0.137 µM | 0.0972 µM | 0.0812 µM | – | – | –
UAUAUAUAGUAAGGAUAUGUAUUAAUUCUAUAAACAGAAGGUACUGACAUGAGGAUCACCCAUGUUUUAGUGUGGGCAUGUAGA [JMF's solution 82] (Eterna round: R96, puzzle: Exclusion NG 1) | – | – | 0.0413 µM | – | – | –
UACAUGAGGAUCACCCAUGUUUUGUCGUGUAUGGUAUUUAUCUAGGAUAUCAAGUUACUUAUUUAUGAGAAGGAGAAUAUUAAU [JMF's solution 30] (Eterna round: R96, puzzle: Exclusion NG 3) | 0.0392 µM | 0.0252 µM | 0.0212 µM | – | – | –
ACAAGCAUUUAUCUUUUCAAAUAUUAUCGUCUUAUAAUUACAUGAGGAUCACCCAUGUAUAGAGGGUGAGAGAUACU [JR_Sensorv2_tov2_Sub552] (Eterna round: R96, puzzle: Sensor v2, turn-off variant 2) | 0.0611 µM | 0.0581 µM | 0.121 µM | – | – | –
UGUUGUUCAGGAUAUGAUGUAUAAUACAUGAGGAUCACCCAUGUAGAUCCUGAAUUAGCGUCAGAAGGGAAUGUUG [salish99_ex5_r4_104] (Eterna round: R97, puzzle: Exclusion 5) | 0.018 µM | 0.0211 µM | – | – | – | –
GCGGACUUGAACGUGAGUUCAGAGACAUGAGGAUCACCCAUGUAGGAUAUCGAUUCGAAACGAAUCGAGAAGGGCAUAGUCCGC [JL denovo 13] (Eterna round: R96, puzzle: Exclusion NG 3) | 0.0233 µM | 0.0161 µM | 0.0118 µM | – | – | –
AUUUUAUAUGAAGGAUAUACUUAACAUGAGGAUCACCCAUGUGGUGUUGUGAGUGAGUGAGUUUAGUAGAAGGUCAAUUAUUUU [JMF's solution 32] (Eterna round: R96, puzzle: Exclusion NG 2) | 0.781 µM | 0.257 µM | 0.167 µM | – | – | –
UUUUAUAGAGGAUAUGCGUGAAUAUAUAUUCAUGGAAAUUUACAUGAGGAUCACCCAUGUAGAAGGCUGUGUUU [LRO-Excl2-19-mod 090 by JR] (Eterna round: R97, puzzle: Exclusion 2) | 0.0141 µM | 0.0145 µM | – | – | – | –

Sequence | apparent KD of MS2 coat protein (input ligand: FMN 200 uM) | apparent KD of MS2 coat protein (input ligand: none) | apparent KD of MS2 coat protein [1] | apparent KD of MS2 coat protein [2] | apparent KD of MS2 coat protein [3] | apparent KD of MS2 coat protein [4]
CAUCUCGUAGGAUAUUCACAAAAGCACAUGAGGAUCACCCAUGUUAUCCGACAUGAUGCCGAAGAAGGACGAAAAC [Di] (puzzle: Exclusion 5) | – | – | – | 0.107 µM | 0.0798 µM | 0.0789 µM
CCCUCACAUGAGGAUCACCCAUGUCAGGAUAUUCGGCGGUCAAUUGACCGCCUUAAAGGAAGAAGGGACGUAAA [Masore] (puzzle: Exclusion 1) | – | – | – | – | 0.0118 µM | –
AAGAAACAUGAGGAUCACCCAUGUGAGGAUAUGAGAAAGAAAAGAAAAGAAAGAAGACUCAGAAGGCACAAAGG [salish99-ex1_r3_040] (puzzle: Exclusion 1) | – | – | – | 0.152 µM | 0.0547 µM | 0.12 µM
GAAAAUGUGGAGGAUAUCGACUUCGAAAGAAGUCGAGAAGGCCACACAUGAGGAUCACCCAUGUGAUGCCUAUA [Omei Ex6 H8] (Eterna round: R97, puzzle: Exclusion 6) | 0.774 µM | 0.23 µM | – | – | – | –
CACUUACAUGAGGAUCACCCAUGUGAGGAUAUCGUGACCUGACGAGAAGUCAAUGUCACGAGAAGGUACAUGGG [Exclusion 1 (Mod 1 solution 97 by Eternabot)] (Eterna round: R97, puzzle: Exclusion 1) | 0.0593 µM | 0.0682 µM | – | – | – | –
GUCCGGCAUGUAGGAUAUGGAUCCGAUUAGGAUUUAGAAGGACAUGAGGAUCACCCAUGUACAUGUAAUUAGUCAUUACCGGAC [EXclNG1-LROPPY02] (Eterna round: R96, puzzle: Exclusion NG 1) | 0.0402 µM | 0.0222 µM | 0.0178 µM | – | – | –
CUAGACGGAGGAUAUACGAGAUCGAAAGAUCGGCGAUCCCUACAUGAGGAUCACCCAUGUAGAAGGCUGUUUAG [Mod 19 - Jieux - Exclusion 2] (Eterna round: R97, puzzle: Exclusion 2) | 0.0699 µM | 0.0162 µM | – | – | – | –
ACAUGAGGAUCACCCAUGUCCGUCUGGUCUGUCUCGGCUGUCGAGGAUAUAGCCCGGUAUCCGCGCUAGAAGGCGGGAGUCGGC [Aenatbe mod 97] (Eterna round: R96, puzzle: Exclusion NG 3) | 0.0231 µM | 0.0296 µM | 0.0245 µM | – | – | –
ACUAUACGAGGAUAUACUGACGGGCCUCAGGCAUCCAUCAGACAUGAGGAUCACCCAUGUAGAAGGCGUAUACU [JR_Exc002_Sub408] (Eterna round: R96, puzzle: Exclusion 2) | 0.459 µM | 0.0514 µM | 0.0444 µM | – | – | –
ACAUGAGGAUCACCCAUGUCCGGCUGGUCCGUCUCGGCUGUCGAGGAUAUAGCUUGGUGUCCGCGCUAGAAGGUGGGAGCCGGC [Aenatbe mod 71] (Eterna round: R96, puzzle: Exclusion NG 3) | 0.166 µM | 0.154 µM | 0.105 µM | – | – | –
AGUGGGCUAGGAUAUCGAUGAACUCACAUGAGGAUCACCCAUGUGUCUUCGGUGGGCGCGCGAGAAGGAGUGAGAU [Belaange] (puzzle: Exclusion 5) | – | – | – | 0.0636 µM | 0.0269 µM | 0.0379 µM
UGAGUGCUGCGAGGAUAUACAUGAGGAUCACCCAUGUAAUCGUCUGAGGCAAAGCCUCAGACGAAGUAGAAGGCGCAGUACUCU [Mat - Exclusion NG 2 - Mod of JL - D26] (Eterna round: R96, puzzle: Exclusion NG 2) | 0.0155 µM | 0.0172 µM | 0.0115 µM | – | – | –
ACAACUGUAGGAUAUACUUUCUGGGUAAGCCAUUAUACUGGACAUGAGGAUCACCCAUGUAGAAGGACAGAAAG [Eternabot (Original) Solution 36] (Eterna round: R97, puzzle: Exclusion 2) | 0.0296 µM | 0.0351 µM | – | – | – | –
CUUUUGUGAGGAUAUUAGUAGUAAAAAAAUAAAAUUACUACUGAGAAGGCACAUGAGGAUCACCCAUGUUCUUC [salish99_ex4_r3_038] (puzzle: Exclusion 4) | – | – | – | – | 0.0175 µM | –
GGGCCUUUGGUCAGGAUAUCUUAUUCCAGACUAUAGGAGAAGGGACUUGAGGAUCACCCAAGUAAAAUGAAAAC [Dizadi] (Eterna round: R97, puzzle: Brourd's mod of Exclusion 4) | 0.0233 µM | 0.024 µM | – | – | – | –
ACCGUGUGAGGAUAUCCGUAGCUGAGGCACCUCGCAAACAUGGAGAAGGCACAUGAGGAUCACCCAUGUGAACC [Eternabot (Original) Solution 27] (Eterna round: R97, puzzle: Exclusion 4) | 0.0471 µM | 0.0238 µM | – | – | – | –
